The experiment addresses SARS-CoV-2 main protease (M^pro) triple mutant (Cys85Ser|Cys156Ser|Cys300Ser), (His)6-tagged (SARS-CoV-2). The experiment in a line: SEC-MALS. In general terms: Size exclusion chromatography separates by hydrodynamic size, large species first.

With “SARS-CoV-2 main protease (M^pro) triple mutant (Cys85Ser|Cys156Ser|Cys300Ser), (His)6-tagged (enzyme)”, the stoichiometry N turned out to be 2.

The stoichiometry N is the number of molecules, sites or subunits per partner or assembly.
